assay: soluble on expression in E. coli; label from the status in PepcDB or PDB records

Row | Sequence | soluble on expression in E. coli
1 | GSHMASKPIEDYGKGKGRIEPMYIPDNTFYNADDFLVPPHCKPYIDKILLPGGLVKDRVEKLAYDIHRTYFGEELHIICILKGSRGFFNLLIDYLATIQKYSGRESSVPPFFEHYVRLKSYQNDNSTGQLTVLSDDLSIFRDKHVLIVEDIVDTGFTLTEFGERLKAVGPKSMRIATLVEKRTDRSNSLKGDFVGFSIEDVWIVGCCYDFNEMFRDFDHVAVLSDAARKKFEK | soluble
2 | GSHMDKTFCVVVQNRIKEGYRRAGFSFHLGDNSLAAVSESQLAQLKADPRLVVQITETGSQEGGEGLSKEPAGSDEQKQLRADPPSTDLNTFTVEQLKAQLTERGITFKQSATKAELIALFAPADGEKSEA | soluble
3 | GSHMGGWSIALHGGAGDIPFSLPPERRKPREEGLRHCLQIGVEALKAQKPPLDVVELVVRELENIEHFNAGIGSVLTNSGTVEMEASIMDGNTMKCGAVSGLSTVLNPISLARLVMDKTPHIYLAFQGAQDFAKQQGVETVDSSHLITAENVERLKLAIEANRVQVDYSQYNYPEPVKDDAEKELPLTNGDSQIG | soluble
4 | GSHMKISEFLHLALPEEQWLPTISGVLRQFAEEECYVYERPPCWYLGKGCQARLHINADGTQATFIDDAGEQKWAVDSIADCARRFMAHPQVKGRRVYGQVGFNFAAHARGIAFNAGEWPLLTLTVPREELIFEKGNVTVYADSADGCRRLCEWVKEASTTTQNAPLAVDTALNGEAYKQQVARAVAEIRRGEYVKVIVSRAIPLPSRIDMPATLLYGRQANTPVRSFMFRQEGREALGFSPELVMSVTGNKVVTEPLAGTRDRMGNPEHNKAKEAELLHDSKEVLEHILSVKEAIAELEAVCLPGSVVVEDLMSVRQRGSVQHLGSGVSGQLAENKDAWDAFTVLFPSITASGIPKNAALNAIMQIEKTPRELYSGAILLLDDTRFDAALVLRSVFQDSQRCWIQAGAGIIAQSTPERELTETREKLASIAPYLMV | soluble
5 | GSHMLTKQQIRYCLDEMAKMFPDAHCELVHRNPFELLIAVVLSAQCTDALVNKVTKRLFEKYRTPHDYIAVPLEELEQDIRSIGLYRNKARNIQKLCAMLIDKYNGEVPRDRDELMKLPGVGRKTANVVVSVAFGVPAIAVDTHVERVSKRLGFCRWDDSVLEVEKTLMKIIPKEEWSITHHRMIFFGRYHCKAQSPQCPSCPLLHLCREGKKRMRKREEKAANQK | soluble
6 | GSHMNQCPEHSQLTTLGVDGKEFPEVHLGQWYFIAGAAPTKEELATFDPVDNIVFNMAAGSAPMQLHLRATIRMKDGLCVPRKWIYHLTEGSTDLRTEGRPDMKTELFSSSCPGGIMLNETGQGYQRFLLYNRSPHPPEKCVEEFKSLTSCLDSKAFLLTPRNQEACELSNN | soluble
7 | GSHMSETDLLMKMVRQPVKLYSVATLFHEFSEVITKLEHSVQKEPTSLLSEENWHKQFLKFAQALPAHGSASWLNLDDALQAVVGNSRSAFLHQLIAKLKSRHLQVLELNKIGSEPLDLSNLPAPFYVLLPESFAARITLLVQDKALPYVRVSMEYWHALEYKGELNDPAANKARKEAELAAATAEQ | soluble
8 | GSHMTALDWRSALTADEQRSVRALVTATTAVDGVAPVGEQVLRELGQQRTEHLLVAGSRPGGPIIGYLNLSPPRGAGGAMAELVVHPQSRRRGIGTAMARAALAKTAGRNQFWAHGTLDPARATASALGLVGVRELIQMRRPLRDIPEPTIPDGVVIRTYAGTSDDAELLRVNNAAFAGHPEQGGWTAVQLAERRGEAWFDPDGLILAFGDSPRERPGRLLGFHWTKVHPDHPGLGEVYVLGVDPAAQRRGLGQMLTSIGIVSLARRLGGRKTLDPAVEPAVLLYVESDNVAAVRTYQSLGFTTYSVDTAYALAGTDN | soluble
9 | GSHMTIQKVHGREVLDSRGNPTVEVEVTTEKGVFRSAVPSGASTGVYEACELRDGDKKRYVGKGCLQAVKNVNEVIGPALIGRDELKQEELDTLMLRLDGTPNKGKLGANAILGCSMAISKAAAAAKGVPLYRYLASLAGTKELRLPVPCFNVINGGKHAGNALPFQEFMIAPVKATSFSEALRMGSEVYHSLKGIIKKKYGQDAVNVGDEGGFAPPIKDINEPLPILMEAIEEAGHRGKFAICMDCAASETYDEKKQQYNLTFKSPEPTWVTAEQLRETYCKWAHDYPIVSIEDPYDQDDFAGFAGITEALKGKTQIVGDDLTVTNTERIKMAIEKKACNSLLLKINQIGTISEAIASSKLCMENGWSVMVSHRSGETEDTYIADLVVALGSGQIKTGAPCRGERTAKLNQLLRIEEELGAHAKFGFPGWS | soluble
10 | GSHMTYPKYLLSPETIEALRKPTFDVWLWEPNEMLSCLEHMYHDLGLVRDFSINPVTLRRWLFCVHDNYRNNPFHNFRHCFCVAQMMYSMVWLCSLQEKFSQTDILILMTAAICHDLDHPGYNNTYQINARTELAVRYNDISPLENHHCAVAFQILAEPECNIFSNIPPDGFKQIRQGMITLILATDMARHAEIMDSFKEKMENFDYSNEEHMTLLKMILIKCCDISNEVRPMEVAEPWVDCLLEEYFMQSDREKSEGLPVAPFMDRDKVTKATAQIGFIKFVLIPMFETVTKLFPMVEEIMLQPLWESRDRYEELKRIDDAMKELQKK | soluble
11 | GSHSLRYFDIAVSRPGLGEPRYISVGYVDDTEFARYDSDAENRRYQPRARWMEREGPEYWERNTPIYKGKEQTFRVNLRTLRGYYNQSEGGSHTIQEMYGCDVGSDGSLLRGYEQFAYDGRDYIALNEDLKTWTAADFAARISRNKLERDGFADLHRAYLEGECVESLRRYLELGKETLLRSDPPKAHVTLHPRPEGDVTLRCWALGFYPADITLTWQLNGEDLTQDMELVETRPAGDGTFQKWASVVVPLGKEQNYTCRVEHEGLPKPLSQRWEPLEHHHHHH | soluble
12 | GSMDQRQKLQHWIHSCLRKADKNKDNKMNFKELKDFLKELNIQVDDGYARKIFRECDHSQTDSLEDEEIETFYKMLTQRAEIDRAFEEAAGSAETLSVERLVTFLQHQQREEEAGPALALSLIERYEPSETAKAQRQMTKDGFLMYLLSADGNAFSLAHRRVYQDMDQPLSHYLVSSSHNTYLLEDQLTGPSSTEAYIRALCKGCRCLELDCWDGPNQEPIIYHGYTFTSKILFCDVLRAIRDYAFKASPYPVILSLENHCSLEQQRVMARHLRAILGPILLDQPLDGVTTSLPSPEQLKGKILLKGKKLGGLLPAGGENGSEATDVSDEVEAAEMEDEAVRSQVQHKPKEDKLKLVPELSDMIIYCKSVHFGGFSSPGTSGQAFYEMASFSESRALRLLQESGNGFVRHNVSCLSRIYPAGWRTDSSNYSPVEMWNGGCQIVALNFQTPGPEMDVYLGCFQDNGGCGYVLKPAFLRDPNTTFNSRALTQGPWWRPERLRVRIISGQQLPKVNKNKNSIVDPKVIVEIHGVGRDTGSRQTAVITNNGFNPRWDMEFEFEVTVPDLALVRFMVEDYDSSSKNDFIGQSTIPWNSLKQGYRHVHLLSKNGDQHPSATLFVKISIQD | soluble
13 | GSMEPGPDGPAASGPAAIREGWFRETCSLWPGQALSLQVEQLLHHRRSRYQDILVFRSKTYGNVLVLDGVIQCTERDEFSYQEMIANLPLCSHPNPRKVLIIGGGDGGVLREVVKHPSVESVVQCEIDEDVIQVSKKFLPGMAIGYSSSKLTLHVGDGFEFMKQNQDAFDVIITDSSDPMGPAESLFKESYYQLMKTALKEDGVLCCQGECQWLHLDLIKEMRQFCQSLFPVVAYAYCTIPTYPSGQIGFMLCSKNPSTNFQEPVQPLTQQQVAQMQLKYYNSDVHRAAFVLPEFARKALNDVS | soluble
14 | GSMEPPNLYPVKLYVYDLSKGLARRLSPIMLGKQLEGIWHTSIVVHKDEFFFGSGGISSCPPGGTLLGPPDSVVDVGSTEVTEEIFLEYLSSLGESLFRGEAYNLFEHNCNTFSNEVAQFLTGRKIPSYITDLPSEVLSTPFGQALRPLLDSIQIQPPGGSSVGRPNGQS | soluble
15 | GSMPKPGILKSKSMFCVIYRSSKRDQTYLYVEKKDDFSRVPEELMKGFGQPQLAMILPLDGRKKLVNADIEKVKQALTEQGYYLQLPPPPEDLLKQHLSVMGQKTDDTNK | soluble
16 | GSMTEADVNPKAYPLADAHLTKKLLDLVQQSCNYKQLRKGANEATKTLNRGISEFIVMAADAEPLEIILHLPLLCEDKNVPYVFVRSKQALGRACGVSRPVIACSVTIKEGSQLKQQIQSIQQSIERLLV | soluble
17 | GSPGISGGGGGSHIEGYECQPIFLNVLEAIEPGVVCAGHDNNQPDSFAALLSSLNELGERQLVHVVKWAKALPGFRNLHVDDQMAVIQYSWMGLMVFAMGWRSFTNVNSRMLYFAPDLVFNEYRMHKSRMYSQCVRMRHLSQEFGWLQITPQEFLCMKALLLFSIIPVDGLKNQKFFDELRMNYIKELDRIIACKRKNPTSCSRRFYQLTKLLDSVQPIARELHQFTFDLLIKSHMVSVDFPEMMAEIISVQVPKILSGKVKPIYFHTQ | soluble
18 | GSQITGTCPSGCSGDCYPECPPGCCGQVNLN | soluble
19 | GSSGSSGMSSMTQNLREVMKVMFKVPGFDRVLEKVTLVSAAPEKLICEMKVEEQHTNKLGTLHGGLTATLVDSISTMALMCTERGAPGVSVDMNITYMSPAKIGEEIVITAHILKQGKTLAFASVDLTNKTTGKLIAQGRHTKHLGNSGPSSG | soluble
20 | GSSHHHHHHSSGLVPRGSQILCVGLVVLDVISLVDKYPKEDSEIRCLSQRWQRGGNASNSCTILSLLGAPCAFMGSMAPGHVADFVLDDLRRYSVDLRYTVFQTTGSVPIATVIINEASGSRTILYYDRSLPDVSATDFEKVDLTQFKWIHIEGRNASEQVKMLQRIDAHNTRQPPEQKIRVSVEVEKPREELFQLFGYGDVVFVSKDVAKHLGFQSAEEALRGLYGRVRKGAVLVCAWAEEGADALGPDGKLLHSDAFPPPRVVDTLGAGDTFNASVIFSLSQGRSVQEALRFGCQVAGKKCGLQGFDGIV | soluble
21 | GSSPNLRYPIADVSGGIGMSPNYRFRQSMWIGIVSYSGSGLNWRVQVNSDIFIVNDYIHICLPAFDGFSIADGGDLSLNFVTGLLPPLLTGDTEPAFHNDVVTYGAQTVAIGLSSGGTPQYMSKNLWVEQWQDGVLRLRVEGGGSITHSNSKWPAMTVSYPRSFT | soluble
22 | GSVAVEDQPDVSAVLSAYNQQGDPTMYEEYYSGLKHFIECSLDCHRAELSQLFYPLFVHMYLELVYNQHENEAKSFFEKFHGDQECYYQDDLRVLSSLTKKEHMKGNETMLDFRTSKFVLRISRDSYQLLKRHLQEKQNNQIWNIVQEHLYIDIFD | soluble
23 | GVKCEPIEELTISVPEEYSSKMIDMVTRRKGDLVSMETQGDRVNIEFDMPSRGIIGLRTNVLTASAGEAIMAHRFKCYQPYKGEIERRSNGSMIAMESGTAFAYAIDKLQDRGKFFIYPQDEVYAGQV | not soluble
24 | GVTGISTGFIDLNKKTAGLQPSDLIIVAARPSMGKTTFAMNLCENASLHDIEDHNDLDENGNPRKKPAKPVLIFSLEMPADQIMMRMLASLSRVNQTKIRTGQIHDDEEWAKISSTVAILQERKNIFIDDSAGLTPTELRSRARRIYRENGGLSLIMVDYLQLMRVPNFSDNRTLEIAEISRSLKALAKELEVPVVALSQLNRSLEQRQDKRPVNSDL | not soluble
25 | HDDGLPAFRYSAELLGQLQLPSVALPLNDDLFLYGRDAEAFDLEAYLALNAPALRDKSEYLEHWSGYYSINPKVLLTLMVMQSGPLGAPDERALAAPLGRLSAKRGFDAQVRDVLQQLSRRYYGFEEYQLRQAAARKAVGEDGLNAASAALLGLLREGAKVSAVQGGNPLGAYAQTFQRLFGTPAAELLQPSNRVARQLQAKAALAPPSNLMQLPWRQGYSWQPNGAHSNTGSGYPYSSFDASYDWPRWGSATYSVVAAHAGTVRVLSRCQVRVTHPSGWATNYYHMDQIQVSNGQQVSADTKLGVYAGNINTALCEGGSSTGPHLHFSLLYNGAFVSLQGASFGPYRINVGTSNYDNDCRRYYFYNQSAGTTHCAFR | not soluble

From the DeepSol protein solubility set
